Tests used:
[1] = target: Antiparallel leucine zipper partner peptide Z′ fused to the C-terminal fragment of the stabilized GFP variant sg100 (Csg100GFP), expressed from pMRBAD-Z′-Csg100GFP; assay: cell-based or functional assay
[2] = target: Antiparallel leucine zipper partner peptide Z′ fused to the C-terminal fragment of superpositive GFP (CspGFP, amino acids 158-231), expressed from pMRBAD-Z′-CspGFP; assay: cell-based or functional assay

Substance | mean cell fluorescence (flow cytometry), 3 hours after induction at 25° C. [1] [fold] | mean cellular fluorescence (flow cytometry) in E. coli after 12 hours at 25° C., compared to uninduced cells [1] [fold] | cell fluorescence 1 hour after induction at 25° C., against split-frGFP Z/Z′ fusions (% more fluorescent) [2] | cell fluorescence after 24 hours at 37° C., against split-frGFP Z/Z′ fusions (% more fluorescent) [2] | maximum mean cell fluorescence, 12 hours at 25° C., against split-frGFP Z/Z′ fusions [2] [% brighter] | mean cell fluorescence (flow cytometry), 1 hour after induction at 25° C. [2] [fold] | mean cell fluorescence (flow cytometry), 2 hours after induction at 25° C. [2] [fold] | mean cell fluorescence (flow cytometry), 3 hours after induction at 25° C. [2] [fold] | mean cellular fluorescence (flow cytometry) in E. coli after 12 hours at 25° C., compared to uninduced cells [2] [fold]
N-terminal fragment of the stabilized GFP variant sg100 (Nsg100GFP) fused to antiparallel leucine zipper peptide Z, expressed from pET11a-Z-Nsg100GFP | 1.2 | 2.3 | – | – | – | – | – | – | –
N-terminal fragment of superpositive GFP (NspGFP, amino acids 1-157) fused to antiparallel leucine zipper peptide Z, expressed from pET11a-Z-NspGFP | – | – | 34 | 24 | 22 | 5 | 15 | 28 | 75

Source: US20140011214A1
